T1: human CAPRIN-1 protein on human cancer cells (human, UniProt Q14444 2-709)
T1 construct: whole, on cells; Endogenous protein of human cancer cell lines (flow cytometry, ADCC, CDC) and of human tumour tissue sections (immunohistochemistry); also called cytoplasmic- and proliferation-associated protein 1; GPI-anchored membrane protein 1
T1 sequence (looked up): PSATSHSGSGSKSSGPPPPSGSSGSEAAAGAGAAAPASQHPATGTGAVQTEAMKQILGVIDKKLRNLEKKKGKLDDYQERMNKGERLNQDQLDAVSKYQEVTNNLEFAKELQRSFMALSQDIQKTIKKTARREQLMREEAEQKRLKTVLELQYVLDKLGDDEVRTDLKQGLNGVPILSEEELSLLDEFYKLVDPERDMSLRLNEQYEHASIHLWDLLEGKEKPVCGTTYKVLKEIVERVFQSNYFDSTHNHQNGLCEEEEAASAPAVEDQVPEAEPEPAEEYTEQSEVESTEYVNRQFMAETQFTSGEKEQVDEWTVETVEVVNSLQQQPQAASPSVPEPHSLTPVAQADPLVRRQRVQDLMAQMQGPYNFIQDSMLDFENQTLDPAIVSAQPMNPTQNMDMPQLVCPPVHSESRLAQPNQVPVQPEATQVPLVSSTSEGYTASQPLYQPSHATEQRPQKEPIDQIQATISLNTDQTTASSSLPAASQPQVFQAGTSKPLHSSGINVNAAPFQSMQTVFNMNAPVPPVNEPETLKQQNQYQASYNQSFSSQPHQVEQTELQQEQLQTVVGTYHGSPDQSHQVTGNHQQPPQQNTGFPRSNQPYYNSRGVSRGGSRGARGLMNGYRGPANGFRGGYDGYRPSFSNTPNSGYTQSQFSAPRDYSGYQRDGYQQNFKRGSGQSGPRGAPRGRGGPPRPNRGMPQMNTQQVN

B1: monoclonal antibody #1 against CAPRIN-1 (antibody, V domains shown)
VH: EVQLHQFGAELVKPGASVKISCKASGYTFTDYNMDWVKQSHGKSLEWIGDINPNYDSTSYNQKFKGKATLTVDKSSSTAYMELRSLTSEDTAVYYCARSRSYDYEGFAYWGQGTLVTVSA
VL: DIQMTQSPASLSASVGETVTITCRASGNIHNYLAWYQQKQGKSPQLLVYNAKTLADGVPSRFSGSGSGTQYSLKINSLQPEDFGSYYCQHFWSTLTFGAGTKLELKR
notes: also called the #1 monoclonal antibody to CAPRIN-1; antibody (a)
B2: monoclonal antibody #3 against CAPRIN-1 (antibody, V domains shown)
VH: B1 VH
VL: DIQLTQSPASLSASVGETVTITCRASGNIHNYLAWYQQKQGKSPQLLVYNAKTLADGVPSRFSGSGSGTQYSLKINSLQPEDFGSYYCQHFWSTLTFGGGTKLEIK
notes: Mouse monoclonal antibody from a hybridoma; also called the #3 monoclonal antibody to CAPRIN-1; antibody (c)
B3: monoclonal antibody #4 against CAPRIN-1 (antibody, V domains shown)
VH: B1 VH
VL: SGDRVSLSCRASQSISNYLHWYQQKSHESPRLLIKYASQSISGIPSRFSGSGSGTDFTLSINSVETEDFGMYFCQQSNSWPYTFGAGTKLEIKQ
notes: Mouse monoclonal antibody from a hybridoma; also called the #4 monoclonal antibody to CAPRIN-1; antibody (d)
B4: monoclonal antibody #7 against CAPRIN-1 (antibody, V domains shown)
VH: LQESGAELARPGASVKLSCKASGYTFTSYWMQWVKQRPGQGLEWIGAIYPGDGDTRYTQKFKGKATLTADKSSSTAYMQLSSLASEDSAVYYCARGEYGNYFAYWGQGTTVTVSS
VL: TSDASLGERVTITCKASQDINSYLSWFQQKPGKSPKTLIYRANRLVDGVPSRFSGSGSGQDYSLTISSLEYEDMGIYYCLQYDEFPLTFGGGTKLEIKQ
notes: Mouse monoclonal antibody from a hybridoma; also called the #7 monoclonal antibody to CAPRIN-1; antibody (g)

The binders below were run against T1, human CAPRIN-1 protein on human cancer … (assay: flow cytometry, hybridoma supernatant on human breast cancer, glioma, kidney, gastric, colon, lung cancer and leukemia cell lines; increase in MFI over control).
Method: Each cell line (10⁶ cells) was centrifuged in a 1.5-ml microcentrifugal tube. The hybridoma supernatants (100 μl each) containing monoclonal antibodies #1 to #10 against CAPRIN-1 prepared in Example 4 reacting to cancer cell surfaces were separately added thereto and then left to stand on ice for 1 hour. After washing with PBS, each resultant was suspended in an FITC-labeled goat anti-mouse IgG antibody (Invitrogen Corporation) diluted 500-fold with PBS containing 0.1% FBS and then left to stand on ice for 1 hour. After washing with PBS, fluorescence intensity was measured using FACSCalibur (Becton, Dickinson and Company). Meanwhile, a procedure similar to the above was performed using, as a control, the control antibody prepared in (5) above instead of the hybridoma supernatants containing monoclonal antibodies #1 to […] against CAPRIN-1, so that a control was prepared. […] Based on the above, it was confirmed that the CAPRIN-1 protein was expressed on the cell surfaces of the above human cancer cell lines. In addition, the rate of increase in fluorescence intensity is represented by the rate of increase in mean fluorescence intensity (MFI value) in cells. It was calculated by the following equation.

| increase in fluorescence intensity over control [%] | Binder |
| --- | --- |
| ≥ 30 | B1 |
| ≥ 30 | B2 |
| ≥ 30 | B3 |
| ≥ 30 | B4 |

The binders below were run against T1, human CAPRIN-1 protein on human cancer … (assay: cell-based or functional assay).

| ADCC activity (chromium 51 release, mouse lymphocytes), MDA-MB-157 cells [%] | CDC activity (chromium 51 release, rabbit serum), MDA-MB-231V cells [%] | Binder |
| --- | --- | --- |
| ≥ 20 | ≥ 30 | B1 |
| ≥ 20 | ≥ 30 | B2 |
| ≥ 20 | ≥ 30 | B3 |
| ≥ 20 | ≥ 30 | B4 |
